The text below walks through data of patent US20250064988A1.

Experiment [1] addresses Glycoprotein IIb (GPIIb, also known as antigen CD41) (UniProt P08514). Kind of experiment: flow cytometry, percent of FDPDs stained; batch 1. A general note: A flow cytometer gives signals particle by particle.
The target is the same in experiment [2]. Description: flow cytometry, percent of FDPDs stained; batch 2.
Experiment [3] shares this target. Kind of experiment: flow cytometry, percent of FDPDs stained; batch 3.
Experiment [4] shares this target. Description: flow cytometry, percent of FDPDs stained; batch 4.
The target is the same in experiment [5]. Kind of experiment: flow cytometry, percent of FDPDs stained; batch 5.
For experiment [6] the target is unchanged. Kind of experiment: flow cytometry, percent of FDPDs stained; batch 6.
Experiment [7] shares this target. Description: flow cytometry, percent of FDPDs stained; batch 7.
Experiment [8] has the same target. Description: flow cytometry, percent of FDPDs stained; mean of 7 batches.
For experiment [9], the target named is P-selectin (also called CD62P) (human) (UniProt P16109). Description: flow cytometry, percent of CD41-positive FDPDs stained; batch 1.
Experiment [10] has the same target. Description: flow cytometry, percent of CD41-positive FDPDs stained; batch 2.
The target is the same in experiment [11]. Description: flow cytometry, percent of CD41-positive FDPDs stained; batch 3.
For experiment [12] the target is unchanged. Kind of experiment: flow cytometry, percent of CD41-positive FDPDs stained; batch 4.
Experiment [13] shares this target. Description: flow cytometry, percent of CD41-positive FDPDs stained; batch 5.
Experiment [14] shares this target. Kind of experiment: flow cytometry, percent of CD41-positive FDPDs stained; batch 6.
Experiment [15] shares this target. Description: flow cytometry, percent of CD41-positive FDPDs stained; batch 7.
Experiment [16] shares this target. Description: flow cytometry, percent of CD41-positive FDPDs stained; mean of 7 batches.
Experiment [17] has the same target. Kind of experiment: flow cytometry, human apheresis platelets without TRAP-6.
Experiment [18] has the same target. Description: flow cytometry, human apheresis platelets after 20 µM TRAP-6.
Experiment [19] concerns the target Thrombospondin (TSP1) (UniProt P07996). Description: flow cytometry, resting fresh washed platelets.
For experiment [20] the target is unchanged. Kind of experiment: flow cytometry, rehydrated baked FDPDs, average of lots.
The target is the same in experiment [21]. Kind of experiment: flow cytometry, fresh washed platelets activated with collagen and thrombin.
In experiment [22] the target is Von Willebrand factor (vWF) (UniProt P04275). Kind of experiment: flow cytometry, resting fresh washed platelets.
For experiment [23] the target is unchanged. Description: flow cytometry, rehydrated baked FDPDs, average of lots.
For experiment [24] the target is unchanged. Kind of experiment: flow cytometry, fresh washed platelets activated with collagen and thrombin.

Chain of UniProt P08514 (P08514 32-1039 limits assumed): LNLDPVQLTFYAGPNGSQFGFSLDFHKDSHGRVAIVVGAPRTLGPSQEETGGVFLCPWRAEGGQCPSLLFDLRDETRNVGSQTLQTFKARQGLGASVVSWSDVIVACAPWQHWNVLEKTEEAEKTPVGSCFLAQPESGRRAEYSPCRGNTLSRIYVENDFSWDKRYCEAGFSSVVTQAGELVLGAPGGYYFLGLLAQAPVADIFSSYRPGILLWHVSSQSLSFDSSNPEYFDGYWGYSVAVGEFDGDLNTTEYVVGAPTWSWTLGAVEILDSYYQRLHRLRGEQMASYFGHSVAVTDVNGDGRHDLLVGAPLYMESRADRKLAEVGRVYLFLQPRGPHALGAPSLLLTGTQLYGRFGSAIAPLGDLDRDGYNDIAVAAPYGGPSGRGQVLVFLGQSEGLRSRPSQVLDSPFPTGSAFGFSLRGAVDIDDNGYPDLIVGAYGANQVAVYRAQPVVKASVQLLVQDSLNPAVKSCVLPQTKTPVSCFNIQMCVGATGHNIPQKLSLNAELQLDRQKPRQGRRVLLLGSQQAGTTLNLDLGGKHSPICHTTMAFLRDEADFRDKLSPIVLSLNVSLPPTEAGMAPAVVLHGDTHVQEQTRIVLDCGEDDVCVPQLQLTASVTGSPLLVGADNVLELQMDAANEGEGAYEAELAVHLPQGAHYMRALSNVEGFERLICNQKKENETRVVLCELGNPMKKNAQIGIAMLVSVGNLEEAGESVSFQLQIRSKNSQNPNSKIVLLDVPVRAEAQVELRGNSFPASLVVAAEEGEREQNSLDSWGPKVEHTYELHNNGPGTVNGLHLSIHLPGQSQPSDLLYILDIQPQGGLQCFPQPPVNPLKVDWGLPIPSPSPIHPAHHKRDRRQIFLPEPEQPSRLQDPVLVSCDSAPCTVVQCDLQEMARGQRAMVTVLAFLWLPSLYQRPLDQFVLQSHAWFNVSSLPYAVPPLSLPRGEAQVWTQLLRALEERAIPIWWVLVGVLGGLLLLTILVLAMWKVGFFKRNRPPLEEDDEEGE
Chain of UniProt P07996 (P07996 19-1170 limits assumed): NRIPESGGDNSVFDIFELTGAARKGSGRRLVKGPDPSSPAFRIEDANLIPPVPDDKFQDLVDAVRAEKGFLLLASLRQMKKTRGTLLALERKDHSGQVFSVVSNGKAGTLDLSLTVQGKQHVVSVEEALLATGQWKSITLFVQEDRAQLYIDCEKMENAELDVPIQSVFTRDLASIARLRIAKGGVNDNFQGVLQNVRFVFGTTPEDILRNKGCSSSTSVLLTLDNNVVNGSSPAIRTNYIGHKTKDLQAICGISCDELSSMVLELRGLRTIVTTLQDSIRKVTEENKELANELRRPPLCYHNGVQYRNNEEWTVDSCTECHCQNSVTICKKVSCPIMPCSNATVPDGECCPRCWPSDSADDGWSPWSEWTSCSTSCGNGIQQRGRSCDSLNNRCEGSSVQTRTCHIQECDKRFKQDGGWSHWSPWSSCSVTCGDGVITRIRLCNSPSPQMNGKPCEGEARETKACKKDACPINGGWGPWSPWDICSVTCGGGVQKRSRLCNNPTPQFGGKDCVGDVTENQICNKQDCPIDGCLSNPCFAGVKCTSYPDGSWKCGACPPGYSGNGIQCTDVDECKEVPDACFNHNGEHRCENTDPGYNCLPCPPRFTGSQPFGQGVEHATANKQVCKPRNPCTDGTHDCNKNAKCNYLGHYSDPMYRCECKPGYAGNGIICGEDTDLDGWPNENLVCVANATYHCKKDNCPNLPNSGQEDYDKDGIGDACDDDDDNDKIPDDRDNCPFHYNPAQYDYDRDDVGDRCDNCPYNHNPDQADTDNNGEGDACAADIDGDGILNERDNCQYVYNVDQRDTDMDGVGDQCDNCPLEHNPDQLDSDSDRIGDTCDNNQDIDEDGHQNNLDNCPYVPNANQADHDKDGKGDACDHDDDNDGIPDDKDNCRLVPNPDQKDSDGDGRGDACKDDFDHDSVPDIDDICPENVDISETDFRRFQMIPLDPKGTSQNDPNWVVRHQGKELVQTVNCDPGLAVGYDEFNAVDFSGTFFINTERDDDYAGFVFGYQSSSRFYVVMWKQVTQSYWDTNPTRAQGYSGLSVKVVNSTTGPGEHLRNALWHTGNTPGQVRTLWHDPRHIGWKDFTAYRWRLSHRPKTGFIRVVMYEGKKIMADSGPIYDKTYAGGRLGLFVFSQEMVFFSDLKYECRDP
Chain of UniProt P16109 (P16109 42-830): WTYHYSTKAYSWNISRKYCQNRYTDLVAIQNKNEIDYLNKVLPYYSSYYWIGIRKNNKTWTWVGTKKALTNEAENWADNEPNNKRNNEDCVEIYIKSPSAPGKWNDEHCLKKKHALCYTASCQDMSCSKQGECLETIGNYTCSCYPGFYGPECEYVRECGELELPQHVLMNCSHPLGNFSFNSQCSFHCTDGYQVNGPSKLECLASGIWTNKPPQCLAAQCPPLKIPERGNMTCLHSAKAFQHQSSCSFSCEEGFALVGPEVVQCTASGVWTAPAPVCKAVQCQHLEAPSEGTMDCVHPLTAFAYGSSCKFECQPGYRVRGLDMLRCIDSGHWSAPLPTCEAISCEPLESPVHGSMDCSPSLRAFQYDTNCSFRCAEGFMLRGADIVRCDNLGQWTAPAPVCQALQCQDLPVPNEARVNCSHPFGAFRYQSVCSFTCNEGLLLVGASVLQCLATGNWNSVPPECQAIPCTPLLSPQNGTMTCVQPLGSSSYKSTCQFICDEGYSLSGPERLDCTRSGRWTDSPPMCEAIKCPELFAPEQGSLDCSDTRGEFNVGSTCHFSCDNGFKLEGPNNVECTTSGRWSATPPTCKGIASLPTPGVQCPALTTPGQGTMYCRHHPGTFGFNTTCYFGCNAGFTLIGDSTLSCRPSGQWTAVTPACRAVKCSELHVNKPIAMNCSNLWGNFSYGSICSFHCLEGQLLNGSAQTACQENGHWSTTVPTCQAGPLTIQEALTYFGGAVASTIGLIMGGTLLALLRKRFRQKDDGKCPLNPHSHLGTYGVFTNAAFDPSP
Chain of UniProt P04275 (P04275 764-2813 limits assumed): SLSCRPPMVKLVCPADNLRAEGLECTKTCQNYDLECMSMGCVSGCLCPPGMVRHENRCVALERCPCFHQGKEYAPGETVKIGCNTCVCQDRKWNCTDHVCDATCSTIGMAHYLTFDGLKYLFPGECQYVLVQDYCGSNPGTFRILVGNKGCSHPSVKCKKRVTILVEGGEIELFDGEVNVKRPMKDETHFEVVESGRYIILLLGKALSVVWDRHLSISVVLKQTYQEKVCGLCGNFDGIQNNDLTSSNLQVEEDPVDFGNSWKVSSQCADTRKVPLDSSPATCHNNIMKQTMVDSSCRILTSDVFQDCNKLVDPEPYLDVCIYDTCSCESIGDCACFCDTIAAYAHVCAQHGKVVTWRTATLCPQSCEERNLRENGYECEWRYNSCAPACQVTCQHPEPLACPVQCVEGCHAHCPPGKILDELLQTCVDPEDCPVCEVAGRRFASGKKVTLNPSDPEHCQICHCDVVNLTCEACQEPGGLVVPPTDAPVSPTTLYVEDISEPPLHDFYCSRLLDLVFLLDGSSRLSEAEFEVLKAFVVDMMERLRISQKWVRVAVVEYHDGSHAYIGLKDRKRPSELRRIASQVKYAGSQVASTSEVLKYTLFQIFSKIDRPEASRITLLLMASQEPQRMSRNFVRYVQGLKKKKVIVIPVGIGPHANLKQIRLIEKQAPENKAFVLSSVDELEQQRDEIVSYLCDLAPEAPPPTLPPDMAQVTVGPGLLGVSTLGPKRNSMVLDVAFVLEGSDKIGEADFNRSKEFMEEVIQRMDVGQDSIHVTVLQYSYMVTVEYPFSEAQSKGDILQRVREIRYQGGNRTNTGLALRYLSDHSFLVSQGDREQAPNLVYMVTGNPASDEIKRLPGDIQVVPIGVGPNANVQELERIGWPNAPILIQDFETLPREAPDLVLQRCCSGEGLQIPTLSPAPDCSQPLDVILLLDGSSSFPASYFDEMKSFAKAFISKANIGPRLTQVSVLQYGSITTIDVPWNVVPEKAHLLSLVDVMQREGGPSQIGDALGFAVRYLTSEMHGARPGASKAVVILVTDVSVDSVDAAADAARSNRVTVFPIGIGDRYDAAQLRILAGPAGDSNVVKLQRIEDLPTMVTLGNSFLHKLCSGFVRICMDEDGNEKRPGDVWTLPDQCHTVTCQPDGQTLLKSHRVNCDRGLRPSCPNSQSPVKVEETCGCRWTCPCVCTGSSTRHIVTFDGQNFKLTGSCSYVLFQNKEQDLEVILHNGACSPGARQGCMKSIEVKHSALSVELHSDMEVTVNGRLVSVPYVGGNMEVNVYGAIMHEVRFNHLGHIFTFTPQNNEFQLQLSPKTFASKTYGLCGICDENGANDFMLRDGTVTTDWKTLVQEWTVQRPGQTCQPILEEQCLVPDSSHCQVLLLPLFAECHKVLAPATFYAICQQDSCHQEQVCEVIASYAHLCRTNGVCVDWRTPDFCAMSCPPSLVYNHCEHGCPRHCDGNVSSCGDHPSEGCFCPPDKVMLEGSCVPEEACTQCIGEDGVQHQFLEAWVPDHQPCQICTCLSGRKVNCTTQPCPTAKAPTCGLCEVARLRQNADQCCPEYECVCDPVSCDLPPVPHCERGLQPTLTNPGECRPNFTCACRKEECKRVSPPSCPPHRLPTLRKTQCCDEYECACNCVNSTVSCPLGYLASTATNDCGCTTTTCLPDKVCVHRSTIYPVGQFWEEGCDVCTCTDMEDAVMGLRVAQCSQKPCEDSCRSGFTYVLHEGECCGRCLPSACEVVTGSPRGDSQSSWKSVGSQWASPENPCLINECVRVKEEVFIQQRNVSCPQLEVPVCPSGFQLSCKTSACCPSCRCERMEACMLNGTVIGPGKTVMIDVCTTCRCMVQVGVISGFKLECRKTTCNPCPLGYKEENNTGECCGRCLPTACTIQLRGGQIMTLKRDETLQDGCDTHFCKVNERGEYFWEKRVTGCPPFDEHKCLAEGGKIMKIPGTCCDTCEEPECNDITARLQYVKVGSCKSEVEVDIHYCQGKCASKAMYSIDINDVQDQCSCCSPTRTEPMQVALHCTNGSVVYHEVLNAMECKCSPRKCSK

Take “anti-CD41 antibody (Beckman Coulter part #IM1416U)”: the CD41 Positivity (%) in experiment [1] stood at 81.5%; in experiment [2], 79.4%; in experiment [3], 85.7%; in experiment [4] it was 78.2%; in [5], 81.5%; in [6] it was 84%. Further, the values for the CD41 Positivity (%) in experiment [7] and in experiment [8] were 78.5% and 81.3%, respectively.
With “anti-CD62P antibody (BD Biosciences Cat. No. 550888)”, the CD62 Positivity (%) in [9] was determined as 94.2%; in [10], 93.1%; in experiment [11], 89.8%; in experiment [12], 92.4%; in experiment [13], 92.5%; in experiment [14], 87.3%. The values for the CD62 Positivity (%) in experiment [15] and in experiment [16] were 90.7% and 91.4%, respectively.
“anti-CD62P-PE antibody (BD Pharmingen Cat #550561 Lot #6322976)”: the MFI came out at 2350 MFI in experiment [17] and 127000 MFI in [18].
Turning to “anti-Thrombospondin-1 (TSP-1) antibody (Santa Cruz Biotech Cat #sc-59887 AF594)”, the MFI in the experiment with Thrombospondin (TSP1) [19] amounted to 1220 MFI; with Thrombospondin (TSP1) [20], 91400 MFI; with Thrombospondin (TSP1) [21], 3310 MFI.
For “anti-Von Willebrand Factor antibody (Novus Biologicals Cat #NBP2-54379PE)”, the MFI is 4770 MFI in experiment [22], 14000 MFI in [23] and 19700 MFI in experiment [24].
